Tested on: Escherichia coli TOP10
Assay: shrunken log2 fold change of peptide-encoding DNA abundance (4.5 h post-induction vs induction); higher = less antimicrobial activity (less host growth inhibition)
Settings: time post-induction: 4.5 h; library: site-saturation at positions 5, 18, 19, 20
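Further: peptides expressed intracellularly from a pBAD plasmid library in pooled LB shake-flask culture, induced with 0.3% L-arabinose, DNA abundance read by NGS, three biological replicates, DESeq2 with apeglm shrinkage.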

| Sequence | shrunken log2 fold change |
| --- | --- |
| RRIRVRPPRLPRPRPRPFYDPRP | -0.0104 |
| RRIRVRPPRLPRPRPRPFYRPRP | -0.576 |
| RRIRVRPPRLPRPRPRPGCFPRP | 0.15 |
| RRIRVRPPRLPRPRPRPGCHPRP | 0.363 |
| RRIRVRPPRLPRPRPRPGEDPRP | 0.0912 |
| RRIRVRPPRLPRPRPRPGEVPRP | 0.101 |
| RRIRVRPPRLPRPRPRPGFAPRP | 0.299 |
| RRIRVRPPRLPRPRPRPGKLPRP | 0.126 |
| RRIRVRPPRLPRPRPRPGLLPRP | -0.146 |
| RRIRVRPPRLPRPRPRPGLWPRP | 0.76 |
| RRIRVRPPRLPRPRPRPGMWPRP | 0.149 |
| RRIRVRPPRLPRPRPRPGPKPRP | 0.254 |
| RRIRVRPPRLPRPRPRPGQDPRP | -0.41 |
| RRIRVRPPRLPRPRPRPGQGPRP | 0.065 |
| RRIRVRPPRLPRPRPRPGRAPRP | 0.685 |
| RRIRVRPPRLPRPRPRPGRKPRP | -0.0493 |
| RRIRVRPPRLPRPRPRPGRSPRP | 0.649 |
| RRIRVRPPRLPRPRPRPGTCPRP | 0.0803 |
| RRIRVRPPRLPRPRPRPGTHPRP | -0.056 |
| RRIRVRPPRLPRPRPRPGVDPRP | 0.0334 |
| RRIRVRPPRLPRPRPRPGWNPRP | -0.0405 |
| RRIRVRPPRLPRPRPRPGYCPRP | -0.307 |

| Sequence | shrunken log2 fold change |
| --- | --- |
| RRIRVRPPRLPRPRPRPGYEPRP | 0.232 |
| RRIRVRPPRLPRPRPRPHALPRP | -0.129 |
| RRIRVRPPRLPRPRPRPHASPRP | -0.15 |
| RRIRVRPPRLPRPRPRPHCCPRP | -0.147 |
| RRIRVRPPRLPRPRPRPHCIPRP | -0.551 |
| RRIRVRPPRLPRPRPRPHDWPRP | 0.00123 |
| RRIRVRPPRLPRPRPRPHEGPRP | -0.0348 |
| RRIRVRPPRLPRPRPRPHEKPRP | 0.0571 |
| RRIRVRPPRLPRPRPRPHGHPRP | -0.0491 |
| RRIRVRPPRLPRPRPRPHGIPRP | 0.00955 |
| RRIRVRPPRLPRPRPRPHIYPRP | -0.519 |
| RRIRVRPPRLPRPRPRPHKMPRP | -0.264 |
| RRIRVRPPRLPRPRPRPHMDPRP | -0.449 |
| RRIRVRPPRLPRPRPRPHMHPRP | -0.517 |
| RRIRVRPPRLPRPRPRPHMIPRP | -0.463 |
| RRIRVRPPRLPRPRPRPHNHPRP | -0.468 |
| RRIRVRPPRLPRPRPRPHNVPRP | -0.859 |
| RRIRVRPPRLPRPRPRPHQPPRP | 0.0593 |
| RRIRVRPPRLPRPRPRPHQWPRP | -0.239 |
| RRIRVRPPRLPRPRPRPHRKPRP | 0.164 |
| RRIRVRPPRLPRPRPRPHRRPRP | -0.328 |
| RRIRVRPPRLPRPRPRPHRVPRP | 0.133 |

| Sequence | shrunken log2 fold change |
| --- | --- |
| RRIRVRPPRLPRPRPRPHSGPRP | -0.022 |
| RRIRVRPPRLPRPRPRPHSIPRP | -0.155 |
| RRIRVRPPRLPRPRPRPHTRPRP | -0.178 |
| RRIRVRPPRLPRPRPRPHVCPRP | -0.0775 |
| RRIRVRPPRLPRPRPRPHVGPRP | 0.0858 |
| RRIRVRPPRLPRPRPRPHWLPRP | -0.291 |
| RRIRVRPPRLPRPRPRPHYSPRP | -0.424 |
| RRIRVRPPRLPRPRPRPICDPRP | -0.0949 |
| RRIRVRPPRLPRPRPRPICHPRP | -0.224 |
| RRIRVRPPRLPRPRPRPIDFPRP | -0.0311 |
| RRIRVRPPRLPRPRPRPIEIPRP | -0.00163 |
| RRIRVRPPRLPRPRPRPIGRPRP | -0.0725 |
| RRIRVRPPRLPRPRPRPIGSPRP | -0.0343 |
| RRIRVRPPRLPRPRPRPIHCPRP | 0.0605 |
| RRIRVRPPRLPRPRPRPIIFPRP | -0.286 |
| RRIRVRPPRLPRPRPRPIIMPRP | 0.0741 |
| RRIRVRPPRLPRPRPRPIIPPRP | -0.36 |
| RRIRVRPPRLPRPRPRPILEPRP | 0.13 |
| RRIRVRPPRLPRPRPRPILMPRP | -0.231 |
| RRIRVRPPRLPRPRPRPIPHPRP | -0.307 |
| RRIRVRPPRLPRPRPRPIQGPRP | 0.0292 |
| RRIRVRPPRLPRPRPRPIQHPRP | -0.415 |

| Sequence | shrunken log2 fold change |
| --- | --- |
| RRIRVRPPRLPRPRPRPIQMPRP | -0.0987 |
| RRIRVRPPRLPRPRPRPIQRPRP | -0.0384 |
| RRIRVRPPRLPRPRPRPIRAPRP | -0.109 |
| RRIRVRPPRLPRPRPRPIRFPRP | -0.0571 |
| RRIRVRPPRLPRPRPRPIRIPRP | -0.0273 |
| RRIRVRPPRLPRPRPRPIRNPRP | -0.0718 |
| RRIRVRPPRLPRPRPRPIRWPRP | -0.0339 |
| RRIRVRPPRLPRPRPRPISQPRP | -0.261 |
| RRIRVRPPRLPRPRPRPISRPRP | 0.107 |
| RRIRVRPPRLPRPRPRPITSPRP | -0.21 |
| RRIRVRPPRLPRPRPRPITVPRP | -1.15 |
| RRIRVRPPRLPRPRPRPITYPRP | -0.911 |
| RRIRVRPPRLPRPRPRPIVAPRP | -0.00399 |
| RRIRVRPPRLPRPRPRPIVFPRP | 0.0602 |
| RRIRVRPPRLPRPRPRPIVLPRP | -0.176 |
| RRIRVRPPRLPRPRPRPIWCPRP | 0.0502 |
| RRIRVRPPRLPRPRPRPIWKPRP | -0.168 |
| RRIRVRPPRLPRPRPRPIWLPRP | -0.106 |
| RRIRVRPPRLPRPRPRPIWNPRP | -0.624 |
| RRIRVRPPRLPRPRPRPIYPPRP | -0.413 |
| RRIRVRPPRLPRPRPRPIYSPRP | -0.203 |
| RRIRVRPPRLPRPRPRPIYYPRP | -0.455 |

| Sequence | shrunken log2 fold change |
| --- | --- |
| RRIRVRPPRLPRPRPRPKAVPRP | 0.0112 |
| RRIRVRPPRLPRPRPRPKCVPRP | -0.0921 |
| RRIRVRPPRLPRPRPRPKFTPRP | -0.0442 |
| RRIRVRPPRLPRPRPRPKGAPRP | 0.553 |
| RRIRVRPPRLPRPRPRPKHCPRP | 0.0148 |
| RRIRVRPPRLPRPRPRPKHGPRP | -0.0119 |
| RRIRVRPPRLPRPRPRPKLDPRP | 0.116 |
| RRIRVRPPRLPRPRPRPKMGPRP | 0.0797 |
| RRIRVRPPRLPRPRPRPKMHPRP | -0.198 |
| RRIRVRPPRLPRPRPRPKMTPRP | -0.0628 |
| RRIRVRPPRLPRPRPRPKNDPRP | 0.011 |
| RRIRVRPPRLPRPRPRPKNFPRP | 0.0772 |
| RRIRVRPPRLPRPRPRPKPRPRP | 0.638 |
| RRIRVRPPRLPRPRPRPKQIPRP | -0.0455 |
| RRIRVRPPRLPRPRPRPKRGPRP | 0.054 |
| RRIRVRPPRLPRPRPRPKTEPRP | 0.00185 |
| RRIRVRPPRLPRPRPRPKTMPRP | 0.196 |
| RRIRVRPPRLPRPRPRPKTWPRP | 0.063 |
| RRIRVRPPRLPRPRPRPKVEPRP | 0.317 |
| RRIRVRPPRLPRPRPRPKVSPRP | -0.0522 |
| RRIRVRPPRLPRPRPRPKWWPRP | 0.0767 |
